According to the supplement of paper PMC12667976:
± gives the standard error.

B1: library; numbered along this chain (parent)
chain: MATDAALRRLLRLHRTEIAVAVDSAFPLLHALADHDVVPEDKFQETLHLKEKEGCPQAFHALLSWLLTQDSTAILDFWRVLFKDYNLERYGRLQPILDSFPKDVDLSQPRKGRKPPAVPKALVPPPRLPTKRKASEEARAAAPAALTPRGTASPGSQLKAKPPKKPESSAEQQRLPLGNGIQTMSASVQRAVAMSSGDVPGARGAVEGILIQQVFESGGSKKCIQVGGEFYTPSKFEDSGSGKNKARSSSGPKPLVRAKGAQGAAPGGGEARLGQQGSVPAPLALPSDPQLHQKNEDECAVCRDGGELICCDGCPRAFHLACLSPPLREIPSGTWRCSSCLQATVQEVQPRAEEPRPQEPPVETPLPPGLRSAGEEVRGPPGEPLAGMDTTLVYKHLPAPPSAAPLPGLDSSALHPLLCVGPEGQQNLAPGARCGVCGDGTDVLRCTHCAAAFHWRCHFPAGTSRPGTGLRCRSCSGDVTPAPVEGVLAPSPARLAPGPAKDDTASHEPALHRDDLESLLSEHTFDGILQWAIQSMARPAAPFPS

Variants of: B1
Test: AIRE transcriptional activation functional score (insulin promoter-GFP; nonsense median 0, synonymous median 1) (normalised score); higher = higher AIRE activity (more reporter activation)
Details: with insulin promoter-GFP reporter in HEK293
Protocol: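 Deep mutational scan of full-length human AIRE (codon-optimized cDNA, DT-POPCode NNN libraries over three regions) integrated at a Bxb1 landing pad in HEK293 cells carrying an insulin core promoter-GFP reporter at a Flp-In site. Cells were sorted for the top 10% GFP about 14 days after transfection. Variant frequency log-ratios (select vs non-select, TileSeq) were rescaled so that the nonsense median is 0 and the synonymous median is 1, then averaged over biological replicates.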

AIRE transcriptional activation functional score: each site, then its substitutions
L13: T 0.418 ± 0.36, H 0.357 ± 0.16, S -0.217 ± 0.59, P 0.275 ± 0.3, I 0.695 ± 0.26, G -0.0939 ± 0.53, R 1.36 ± 0.45, C 0.26 ± 0.64, V 0.593 ± 0.48, N -0.209 ± 0.12, Y 1.42 ± 0.61, E 0.79 ± 0.053, M 1.23 ± 0.27, A 0.273 ± 0.21, D -0.291 ± 1.1, Q 0.368 ± 0.3, W 0.425 ± 0.079, F 1.11 ± 0.37
E17: K 0.389 ± 0.19, W -0.29 ± 0.14, T 0.383 ± 0.71, H 0.241 ± 1, Q -0.406 ± 0.85, L 0.113 ± 0.36, G -0.233 ± 0.71, N -0.662 ± 0.64, I -0.454 ± 0.54, S -0.0199 ± 0.23, F -0.224 ± 0.25, V 0.0123 ± 0.26, P -0.151 ± 0.34, M 0.896 ± 0.27, C -0.595 ± 0.37, R -0.438 ± 0.75, Y -0.411 ± 0.17, A 0.78 ± 0.58, D 1.42 ± 0.72
I18: T -0.194 ± 0.67, H 0.614 ± 0.35, G 0.378 ± 0.28, V -0.092 ± 0.32, L 0.304 ± 0.57, E 0.682 ± 0.3, R 0.483 ± 0.28, Y -0.479 ± 0.28, P -0.146 ± 0.3, F 0.0176 ± 0.2, W 0.00284 ± 0.15, K 0.219 ± 0.83, S 0.138 ± 0.48, N -0.247 ± 0.45, C -0.426 ± 0.095, Q -0.126 ± 0.07, D 0.751 ± 0.068, A -0.708 ± 0.62, M 0.409 ± 0.13
H14: S 0.00226 ± 0.49, Q 0.144 ± 0.28, P -0.256 ± 0.64, T 0.312 ± 0.1, Y 0.888 ± 0.31, W 0.335 ± 0.094, G 0.338 ± 0.25, C -0.236 ± 0.35, A -0.0434 ± 0.09, V -0.238 ± 0.39, M -0.84 ± 0.27, L -0.153 ± 0.31, R -0.348 ± 0.51, D -0.577 ± 0.094, N 1.68 ± 0.1, E -1.27 ± 0.55, F 0.561 ± 0.32, I -0.18 ± 0.47
A2: P 1.55 ± 0.37, G 0.545 ± 0.1, V -0.0464 ± 0.12, S 1.27 ± 0.12, T 0.369 ± 0.19, E 1.14 ± 0.08
R15: Y -0.904 ± 0.22, K -1.95 ± 0.17, F 0.0396 ± 0.61, D 0.279 ± 0.29, V 0.0544 ± 0.6, C -0.257 ± 0.17, A -0.222 ± 0.32, S -0.0525 ± 0.75, I 0.486 ± 0.75, L 0.37 ± 0.32, P -0.373 ± 1, T 0.316 ± 0.23, W 0.0452 ± 0.059, G -0.349 ± 0.32, M 0.112 ± 0.11, Q 0.45 ± 0.067, H -0.146 ± 0.19
L11: P 0.466 ± 0.29, A -0.709 ± 0.55, E -0.17 ± 0.24, G -0.259 ± 0.73, V 0.213 ± 0.5, F 0.127 ± 0.061, K 0.379 ± 0.093, T -0.0406 ± 0.65, Q 0.602 ± 0.51, D 0.606 ± 0.6, M 0.0247 ± 0.081, N 0.0103 ± 0.076, H -0.271 ± 0.11, Y -0.339 ± 0.4, R 0.101 ± 0.38, I 0.208 ± 0.44, S 0.17 ± 0.34, C -0.106 ± 0.11, W 0.256 ± 0.083
A21: E 0.657 ± 0.37, F -0.0679 ± 0.18, C 0.675 ± 0.39, D -0.73 ± 0.38
L7: P 0.0964 ± 0.66, Q 0.381 ± 0.63, F -0.323 ± 0.33, A -0.112 ± 0.16, Y 0.122 ± 0.12, K -0.0956 ± 0.16, R 0.0717 ± 0.84, N -0.876 ± 0.22, T 1.26 ± 0.37, C -1 ± 0.98, G -0.106 ± 0.71, H 0.927 ± 0.78, V -0.199 ± 0.32, M 0.507 ± 0.28, I 0.982 ± 0.18, S 0.248 ± 0.41, D -0.451 ± 0.08, W 0.0852 ± 0.06
V20: S -0.474 ± 0.42, Y 0.662 ± 0.42, H -0.433 ± 0.067, K -0.579 ± 0.17, P 0.184 ± 0.63, N -0.0183 ± 0.18, I 1.31 ± 0.54, M 0.622 ± 0.34, R -0.283 ± 0.69, W 0.633 ± 0.12, C -0.981 ± 0.093, E -1.26 ± 0.12, F 0.146 ± 0.077, D 0.0604 ± 0.26, Q -0.25 ± 0.26, L 0.278 ± 0.32, G -0.208 ± 0.36, A -0.889 ± 0.64, T 0.0422 ± 0.34
D4: P -0.0888 ± 0.36, V 0.202 ± 0.24, Y 0.616 ± 0.39, H -0.661 ± 0.68, E 1.26 ± 0.14, I 0.179 ± 1, F 0.414 ± 0.23, A 0.529 ± 0.99, W 0.262 ± 0.053, S 0.199 ± 0.46, G 0.166 ± 0.2, T -0.494 ± 0.11, N 0.245 ± 0.27, L 0.0531 ± 0.29, Q -3.53 ± 0.6, R -0.235 ± 0.59, C 0.509 ± 0.18
T16: C 0.227 ± 0.26, R -0.0166 ± 0.31, G 0.0399 ± 0.37, Y 0.309 ± 0.36, H -0.704 ± 0.84, I -0.0145 ± 0.17, D -0.128 ± 0.45, W -0.366 ± 0.048, E 1.64 ± 0.14, P -0.109 ± 0.47, M 0.203 ± 0.12, V 0.0381 ± 0.39, Q -0.475 ± 0.078, L -0.113 ± 0.4, K -0.208 ± 0.32, S -0.287 ± 0.29, A -0.419 ± 0.84, N 0.597 ± 0.079, F -0.112 ± 0.16
R12: Q -1.11 ± 0.89, M 0.457 ± 0.063, L 0.419 ± 0.69, A -0.914 ± 0.56, C -0.448 ± 0.53, D -0.77 ± 0.14, Y -0.191 ± 0.23, F -0.626 ± 0.18, W -0.0189 ± 0.097, H -0.211 ± 0.16, P 0.187 ± 0.17, I -0.464 ± 0.25, S -0.0905 ± 0.47, G 0.415 ± 0.41, K 1.84 ± 0.66, E -0.463 ± 0.9, T -0.393 ± 0.21, V 0.442 ± 0.52
L10: C -0.25 ± 0.31, N -0.218 ± 0.44, M 0.438 ± 0.057, Q -0.766 ± 0.54, T 0.145 ± 0.36, G -0.12 ± 0.14, V -0.151 ± 0.34, W -0.175 ± 0.14, H 1.75 ± 0.32, R 0.701 ± 0.58, I 0.238 ± 0.76, Y 1.01 ± 0.24, K -1.76 ± 0.75, P 0.292 ± 0.34, D 0.416 ± 0.19, S -0.035 ± 0.35, A -0.0675 ± 0.18, E -0.413 ± 0.3, F 0.827 ± 0.25
A19: S 0.921 ± 0.61, G 0.563 ± 0.33, I -0.333 ± 0.57, M 1.9 ± 0.1, D 0.412 ± 0.59, L 0.0523 ± 0.27, F 0.0254 ± 0.21, V -0.0384 ± 0.33, C 0.605 ± 0.3, W -0.29 ± 0.099, Y -2.2 ± 0.58, H 0.194 ± 0.27, E 0.513 ± 0.43, Q -1.03 ± 0.17, T -0.102 ± 0.31, P -0.228 ± 0.44, R 0.348 ± 0.55, K 0.838 ± 1.1
A5: G 0.74 ± 0.35, I 1.2 ± 0.62, S 1.24 ± 0.36, L 1 ± 0.51, D 0.947 ± 0.62, M 0.955 ± 0.1, Y 0.397 ± 0.37, R 1.72 ± 0.62, N 0.61 ± 0.13, H 0.534 ± 0.3, T 1.04 ± 0.38, C 1.17 ± 0.35, V 1.45 ± 0.2, W 0.849 ± 0.1, F 0.709 ± 0.23, E 1.41 ± 0.12, Q 0.782 ± 0.05, P 0.767 ± 0.54
T3: P -0.0536 ± 0.46, G 0.0107 ± 0.19, R 1.18 ± 0.6, M 1.74 ± 0.052, L 1.26 ± 0.31, E -0.211 ± 0.065, W 2.08 ± 0.48, A 1.09 ± 0.56, N 0.808 ± 0.74, S 0.972 ± 0.75, V 0.465 ± 0.14, K 1.31 ± 0.12, I -0.128 ± 0.25
R8: I 0.433 ± 0.29, L -0.0603 ± 0.58, A -0.421 ± 0.42, Y -0.316 ± 0.91, V -0.0144 ± 0.31, W -0.126 ± 0.086, N -0.26 ± 0.14, D 0.401 ± 0.51, F -0.127 ± 0.28, H -0.286 ± 0.2, G -0.0812 ± 0.54, P -0.196 ± 0.54, C 0.131 ± 0.12, K 0.485 ± 0.11, T -0.0815 ± 0.38, S 0.281 ± 0.48, E -0.344 ± 0.079, Q -1.39 ± 0.14
R9: K -2.37 ± 0.13, V 0.133 ± 0.31, M 0.633 ± 0.12, D 0.539 ± 0.48, P 0.671 ± 0.54, H 0.195 ± 0.13, Q 1.13 ± 0.62, Y 0.868 ± 1.2, W 0.515 ± 0.082, S 1.39 ± 0.75, A 1.09 ± 0.34, G 0.856 ± 0.66, T 0.253 ± 0.34, C -0.35 ± 0.18, I 0.0495 ± 0.27, E -0.057 ± 0.29, N 1.38 ± 0.35, L 0.268 ± 0.39, F -0.124 ± 0.19
A6: F 1.43 ± 0.77, L 1.45 ± 0.73, Y 2.12 ± 1.1, S 0.223 ± 0.61, I 0.395 ± 0.37, W 0.676 ± 0.14, N -0.00395 ± 0.93, P 0.153 ± 0.34, M 0.372 ± 0.17, V 0.772 ± 0.51, D 1.01 ± 1.3, R 0.648 ± 0.17, G 1.2 ± 0.27, C 0.756 ± 0.3, T 0.643 ± 0.46, E 1.37 ± 0.1, H 0.532 ± 0.11, Q 1.03 ± 0.075
